In patent US20150276749A1 (KONICA MINOLTA, published 2015):

What was measured:
[1] = target: T1, soluble-type human DSG3-mouse IgG2aFc fusion protein (human; mouse, UniProt P32926 50-616); experiment: sandwich ELISA, luminescence over blank; immobilized DF151, detection MAB1720; antigen 1 pg/mL
T1 construct: also called human desmoglein 3; desmoglein 3 standard; not shown: mouse IgG2a Fc, printed 'mouse IgG2aFc' and 'mouse IgG2 constant region'
T1 sequence: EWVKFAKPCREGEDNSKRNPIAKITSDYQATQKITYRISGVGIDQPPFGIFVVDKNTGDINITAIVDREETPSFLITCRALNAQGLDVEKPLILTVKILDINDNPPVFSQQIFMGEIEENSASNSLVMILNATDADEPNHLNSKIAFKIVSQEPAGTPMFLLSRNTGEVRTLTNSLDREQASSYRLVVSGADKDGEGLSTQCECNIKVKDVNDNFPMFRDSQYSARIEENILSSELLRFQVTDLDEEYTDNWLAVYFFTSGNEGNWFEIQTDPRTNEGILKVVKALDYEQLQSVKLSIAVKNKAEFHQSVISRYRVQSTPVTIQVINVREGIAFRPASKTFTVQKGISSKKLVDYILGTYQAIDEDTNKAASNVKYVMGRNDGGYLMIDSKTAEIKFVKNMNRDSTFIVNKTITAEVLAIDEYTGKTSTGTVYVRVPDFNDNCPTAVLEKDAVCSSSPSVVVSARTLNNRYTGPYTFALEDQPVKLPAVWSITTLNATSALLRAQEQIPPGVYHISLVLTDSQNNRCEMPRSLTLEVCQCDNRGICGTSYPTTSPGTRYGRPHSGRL
Procedure: (§1) Subsequently, the antigen solutions having the above-described concentrations were each added to the plate in an amount of 50 μL/well, and the plate was incubated at room temperature for 1 hour. Then, the antigen solution was removed, and the plate was washed with 0.05% Tween 20-PBS three times. Thereafter, the 1-μg/mL biotinylated antibody solution was added in an amount of 50 μL/well, and the plate was incubated at room temperature for 1 hour.
(§2) Then, after removing the streptavidin-HRP solution and washing the plate with 0.05% Tween 20-PBS three times, a substrate solution (SuperSignal ELISA Femto Maximum Sensitivity Substrate (registered trademark); Pierce Biotechnology, Inc.) was added in an amount of 100 μL/well. One minute thereafter, the luminescence intensity was measured using a luminometer, Fluoroskan Ascent FL (trade name, Thermo Electron Corporation).
(§3) The numerical values shown in Table 1 represent the minimum values of the antigen solution concentration having an S/N ratio of higher than 2 (hereinafter, referred to as “detection limit concentration”) and the unit of the numerical values is pg/mL. […]

[2] = target: T1, soluble-type human DSG3-mouse IgG2aFc …; experiment: sandwich ELISA, luminescence over blank; immobilized DF151, detection D219-3; antigen 10 pg/mL
Procedure: as §1, §2
(§4) The numerical values shown in Table 1 represent the minimum values of the antigen solution concentration having an S/N ratio of higher than 2 (hereinafter, referred to as “detection limit concentration”) and the unit of the numerical values is pg/mL. The S/N ratio was determined by dividing the luminescence intensity at the respective antigen solution concentrations ([…]) by the luminescence intensity of an antigen-free blank antigen solution (0 μg/mL).

[3] = target: T1, soluble-type human DSG3-mouse IgG2aFc …; experiment: sandwich ELISA, luminescence over blank; immobilized DF151, detection D219-3; antigen 25000 pg/mL
Procedure: as §1, §2, §4

[4] = target: T1, soluble-type human DSG3-mouse IgG2aFc …; experiment: sandwich ELISA, luminescence over blank; immobilized DF151, detection MAB1720; antigen 40 pg/mL
Procedure: as §1, §2, §4

[5] = target: T1, soluble-type human DSG3-mouse IgG2aFc …; experiment: sandwich ELISA, luminescence over blank; immobilized DF151, detection MAB1720; antigen 10 pg/mL
Procedure: as §1, §2, §3

[6] = target: T1, soluble-type human DSG3-mouse IgG2aFc …; experiment: sandwich ELISA, luminescence over blank; immobilized DF151, detection MAB1720; antigen 200 pg/mL
Procedure: as §1, §2, §4

[7] = target: T1, soluble-type human DSG3-mouse IgG2aFc …; experiment: sandwich ELISA, luminescence over blank; immobilized DF151, detection D219-3; antigen 40 pg/mL
Procedure: as §1, §2, §4

[8] = target: T1, soluble-type human DSG3-mouse IgG2aFc …; experiment: sandwich ELISA, luminescence over blank; immobilized DF151, detection DF151; antigen 10 pg/mL
Procedure: as §1, §2, §3

[9] = target: T1, soluble-type human DSG3-mouse IgG2aFc …; experiment: sandwich ELISA, luminescence over blank; immobilized DF151, detection D219-3; antigen 1000 pg/mL
Procedure: as §1, §2, §4

[10] = target: T1, soluble-type human DSG3-mouse IgG2aFc …; experiment: sandwich ELISA, luminescence over blank; immobilized DF151, detection DF151; antigen 200 pg/mL
Procedure: as §1, §2, §4

[11] = target: T1, soluble-type human DSG3-mouse IgG2aFc …; experiment: sandwich ELISA, luminescence over blank; immobilized DF151, detection D219-3; antigen 200 pg/mL
Procedure: as §1, §2, §4

[12] = target: T1, soluble-type human DSG3-mouse IgG2aFc …; experiment: sandwich ELISA, luminescence over blank; immobilized DF151, detection MAB1720; antigen 5000 pg/mL
Procedure: as §1, §2, §4

B1: DF151 (DF151[I] antibody) (antibody, mouse IgG2b, kappa, V domains shown)
VH: EVQLQQSGPELVKPGASVKISCKASGYSFTAYYMHWVKQSPEKCLEWIGQINPSTGGTTYNQKFKAKATLTVDKSSSTAYMQLKSLTSEDSAVYYCARWGDSWGQGTTLTVSS
VL: DIVLTQSPASLAVSLGQSVTISCRASESVEYYGTSLMQWYQQKPGQPPKLLIYGASDVESGVPARFSGSGSGTDFSLNIHPVEEDDIAMYFCQQSRKVPYTFGSGTKLEIKR
notes: Complete antibody; Biotinylated as detection antibody in ELISA; labeled with Alexa Fluor 647 as detection antibody in SPFS; also called DF151 antibody
Which results are given for B1?
S/N ratio [1]: 1; S/N ratio [2]: 0.9; S/N ratio [3]: 50.3; S/N ratio [4]: 1.1; S/N ratio [5]: 1.1; S/N ratio [6]: 1.6; S/N ratio [7]: 0.8; S/N ratio [8]: 0.9; S/N ratio [9]: 2.3; S/N ratio [10]: 1.2; S/N ratio [11]: 1; S/N ratio [12]: 17.7
